Experimental findings from patent US20230129812A1 (ACCELERON PHARMA, published 2023) are described below.

To fix the notation:
T1: BMP9 (UniProt Q9UK05 320-429)
T1 construct: also called GDF2
T1 sequence (looked up): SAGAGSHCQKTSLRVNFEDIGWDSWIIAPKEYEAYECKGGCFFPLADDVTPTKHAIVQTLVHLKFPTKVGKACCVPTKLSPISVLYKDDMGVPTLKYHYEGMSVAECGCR

T2: activin B (UniProt P09529 293-407)
T2 sequence (looked up): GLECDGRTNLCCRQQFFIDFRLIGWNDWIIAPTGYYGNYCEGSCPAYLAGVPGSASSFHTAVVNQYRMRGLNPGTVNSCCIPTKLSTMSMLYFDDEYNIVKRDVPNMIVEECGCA

T3: BMP6 (UniProt P22004 375-513, limits assumed)
T3 sequence (looked up): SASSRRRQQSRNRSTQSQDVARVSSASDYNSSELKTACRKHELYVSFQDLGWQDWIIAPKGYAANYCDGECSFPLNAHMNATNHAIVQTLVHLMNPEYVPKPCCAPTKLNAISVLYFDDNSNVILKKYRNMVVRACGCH

T4: GDF8 (UniProt O14793 267-375)
T4 construct: also called myostatin
T4 sequence (looked up): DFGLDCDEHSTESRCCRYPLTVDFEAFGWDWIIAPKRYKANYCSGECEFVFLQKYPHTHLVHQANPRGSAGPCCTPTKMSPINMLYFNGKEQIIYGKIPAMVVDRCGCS

T5: activin A (UniProt P08476 311-426)
T5 construct: also called ActA
T5 sequence (looked up): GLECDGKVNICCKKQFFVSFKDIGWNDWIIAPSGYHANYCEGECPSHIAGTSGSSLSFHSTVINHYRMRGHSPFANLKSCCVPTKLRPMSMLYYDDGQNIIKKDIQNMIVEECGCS

T6: GDF3 (UniProt Q9NR23 251-364)
T6 construct: also called VGR2
T6 sequence (looked up): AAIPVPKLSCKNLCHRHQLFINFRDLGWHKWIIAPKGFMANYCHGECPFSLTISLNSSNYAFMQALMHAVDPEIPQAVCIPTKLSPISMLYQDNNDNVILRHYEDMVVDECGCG

T7: Soluble ActRIIB-Fc +15tail (Homo sapiens (Human), UniProt Q13705 19-134)
T7 construct: not shown: linker and Fc
T7 sequence (looked up): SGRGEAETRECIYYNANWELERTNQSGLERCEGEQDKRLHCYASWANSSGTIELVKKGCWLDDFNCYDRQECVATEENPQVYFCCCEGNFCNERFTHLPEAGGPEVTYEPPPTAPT

B1: ALK4-Fc:ActRIIB-Fc heterodimer (Fc fusion)
chain 1: GRGEAETRECIYYNANWELERTNQSGLERCEGEQDKRLHCYASWRNSSGTIELVKKGCWLDDFNCYDRQECVATEENPQVYFCCCEGNFCNERFTHLPEAGGPEVTYEPPPTAPTGGGTHTCPPCPAPELLGGPSVFLFPPKPKDTLMISRTPEVTCVVVDVSHEDPEVKFNWYVDGVEVHNAKTKPREEQYNSTYRVVSVLTVLHQDWLNGKEYKCKVSNKALPAPIEKTISKAKGQPREPQVYTLPPSRKEMTKNQVSLTCLVKGFYPSDIAVEWESNGQPENNYKTTPPVLKSDGSFFLYSKLTVDKSRWQQGNVFSCSVMHEALHNHYTQKSLSLSPGK
chain 2: SGPRGVQALLCACTSCLQANYTCETDGACMVSIFNLDGMEHHVRTCIPKVELVPAGKPFYCLSSEDLRNTHCCYTDYCNRIDLRVPSGHLKEPEHPSMWGPVETGGGTHTCPPCPAPELLGGPSVFLFPPKPKDTLMISRTPEVTCVVVDVSHEDPEVKFNWYVDGVEVHNAKTKPREEQYNSTYRVVSVLTVLHQDWLNGKEYKCKVSNKALPAPIEKTISKAKGQPREPQVYTLPPSREEMTKNQVSLTCLVKGFYPSDIAVEWESNGQPENNYDTTPPVLDSDGSFFLYSDLTVDKSRWQQGNVFSCSVMHEALHNHYTQKSLSLSPG
notes: The receptor parts are the same in all three; also called ALK4-Fc:ActRIIB-Fc heterodimeric complex; ALK4:ActRIIB heterodimer
B2: ActRIIB(L79D 25-131)-hFc (Fc fusion)
chain: ETRECIYYNANWELERTNQSGLERCEGEQDKRLHCYASWRNSSGTIELVKKGCWDDDFNCYDRQECVATEENPQVYFCCCEGNFCNERFTHLPEAGGPEVTYEPPPTGGGTHTCPPCPAPELLGGPSVFLFPPKPKDTLMISRTPRVTCVVVDVSHEDPEVKFNWYVDGVEVHNAKTKPREEQYNSTYRVVSVLTVLHQDWLNGKEYKCKVSNKALPAPIEKTISKAKGQPREPQVYTLPPSREEMTKNQVSLTCLVKGFYPSDIAVEWESNGQPENNYKTTPPVLDSDGSFFLYSKLTVDKSRWQQGNVFSCSVMHEALHNHYTQKSLSLSPGK
B3: Soluble ActRIIB-Fc D54A (Table 11) (Fc fusion, UniProt Q13705 19-119, looked up, not shown: a dimerising Fc or GST)
chain: SGRGEAETRECIYYNANWELERTNQSGLERCEGEQAKRLHCYASWANSSGTIELVKKGCWLDDFNCYDRQECVATEENPQVYFCCCEGNFCNERFTHLPEA
B4: Soluble ActRIIB-Fc R40A (Table 11) (Fc fusion, UniProt Q13705 19-119, looked up, not shown: a dimerising Fc or GST)
chain: B3 chain with R22A, A36D
B5: Soluble ActRIIB-Fc F82A (Table 11) (Fc fusion, UniProt Q13705 19-119, looked up, not shown: a dimerising Fc or GST)
chain: B3 chain with A36D, F64A
B6: Soluble ActRIIB-Fc L79A (Table 11) (Fc fusion, UniProt Q13705 19-119, looked up, not shown: a dimerising Fc or GST)
chain: B3 chain with A36D, L61A
B7: BMP10 (ligand, UniProt O95393 317-424, looked up)
chain: NAKGNYCKRTPLYIDFKEIGWDSWIIAPPGYEAYECRGVCNYPLAEHLTPTKHAIIQALVHLKNSQKASKACCVPTKLEPISILYLDKGVVTYKFKYEGMAVSECGCR
B8: GDF11 (ligand, UniProt O95390 299-407, looked up)
chain: NLGLDCDEHSSESRCCRYPLTVDFEAFGWDWIIAPKRYKANYCSGQCEYMFMQKYPHTHLVQQANPRGSAGPCCTPTKMSPINMLYFNDKQQIIYGKIPGMVVDRCGCS
notes: also called BMP11

Substitutions are numbered along the chain they refer to. Names and notes keep the numbering of the source.

The target in one assay is T1, BMP9. As to the kind of experiment: SPR (Biacore); receptor-Fc captured by anti-Fc antibody, ligand injected. Here is the method: (§1) A Biacore™-based binding assay was used to compare ligand binding selectivity of the ALK4-Fc:ActRIIB-Fc heterodimeric complex described above with that of ActRIIB-Fc and ALK4-Fc homodimer complexes. The ALK4-Fc:ActRIeB-Fc heterodimer, […], and ALK4-Fc homodimer were independently captured onto the system using an anti-Fc antibody. Ligands were injected and allowed to flow over the captured receptor protein. Results are summarized in Table 13 below, in which ligand off-rates (kd) most indicative of effective polypeptides are denoted in bold.
(Surface plasmon resonance follows binding to a sensor surface in real time, without labels.)

The target in another assay is T2, activin B. The description is as above. The protocol:
as §1

Assay [1] addresses T3, BMP6. Described as above. The protocol: as §1
Assay [2] deals with T4, GDF8. The description is as above. Here is the method: as §1
Assay [3] deals with B8. The description is as above. The protocol: as §1
Assay [4] concerns the target T5, activin A. Described as above. The protocol:
as §1

The target of assay [5] is B7. Described as above. The protocol: as §1
The target of another assay is T6, GDF3. Described as above. Here is the method: as §1
For assay [6], the target named is T3, BMP6. Put plainly: SPR (Biacore).
For assay [7], the target named is T4, GDF8. As to the kind of experiment: SPR (Biacore).
Assay [8] deals with B7. As to the kind of experiment: SPR (Biacore).
Assay [9] has as its target B8. As to the kind of experiment: SPR (Biacore); ligand coupled, receptor flowed over (as reported in WO2006/012627). From the text: (§2) Other variants have been generated and tested, as reported in WO2006/012627 (incorporated herein by reference in its entirety). See, e.g., pp. 59-60, using ligands coupled to the device and flowing receptor over the coupled ligands. […] Table 11 showing data with respect to these variants is reproduced below: […]

Assay [10] addresses T5, activin A. As to the kind of experiment: SPR (Biacore); ligand coupled, receptor flowed over (as reported in WO2006/012627); - means ~1/2 WT binding.
Source text: as §2

The target in assay [11] is B8. The description is as above.
Source text: as §2

The target of assay [12] is T5, activin A. Put plainly: SPR (Biacore); ligand coupled, receptor flowed over (as reported in WO2006/012627); + means WT.
Source text: as §2

Assay [13] has as its target T8, ActRIIA-mFc (human, UniProt P27037 21-135).
T8 construct: not shown: minimal linker and mouse Fc domain
Put plainly: SPR (Biacore), similar binding assay. The protocol: GDF11 or activin A were immobilized on a Biacore™ CM5 chip using standard amine-coupling procedure. ActRIIA-hFc and ActRIIA-mFc proteins were loaded onto the system, and binding was measured. […] Using a similar binding assay, ActRIIA-hFc was determined to have high to moderate affinity for other TGF-beta superfamily ligands including, for example, activin B, GDF8, BMP6, and BMP10. ActRIIA-mFc behaved similarly.

In assay [14] the target is T8, ActRIIA-mFc. Put plainly: SPR (Biacore); ligand amine-coupled to CM5 chip, receptor-Fc injected.
Assay [15] has as its target T7, Soluble ActRIIB-Fc +15tail. Put plainly: SPR (Biacore); ligand coupled, receptor flowed over (as reported in WO2006/012627).
Source text: as §2

By Kd is commonly meant the constant that tells how readily two partners part at equilibrium. As a reminder, the koff is the rate constant with which the complex falls apart. A higher koff goes with a short-lived complex. As a reminder, the kon is a measure of how fast the partners come together. Low readings indicate slow association, high ones fast association.

T8 sequence (P27037 21-135): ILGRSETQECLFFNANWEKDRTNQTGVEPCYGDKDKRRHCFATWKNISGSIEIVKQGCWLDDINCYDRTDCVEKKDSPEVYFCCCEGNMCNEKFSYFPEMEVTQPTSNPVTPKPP

Turning to B1, the Kd in the assay with BMP9 stood at 3400 pM; with activin B, 6 pM; in the assay with BMP6 [1], 2700 pM; with GDF8 [2], 550 pM; with GDF11 [3], 3 pM; with activin A [4] it was 12 pM. For the same molecule, the Kd turned out to be 74 pM with BMP10 [5] and 4900 pM in the assay with GDF3. The dissociation rate constant (koff) in the assay with activin B is 4e-05 s⁻¹; with BMP6 [1], 0.0055 s⁻¹; with GDF8 [2] it was 0.00021 s⁻¹; in the assay with GDF11 [3] it was 0.00011 s⁻¹; with activin A [4], 0.00015 s⁻¹; in the assay with BMP10 [5], 0.0041 s⁻¹. Further, in the assay with GDF3, the off-rate constant (koff) amounted to 0.017 s⁻¹. In addition, the kon with activin B was found to be 7.1e+06 M⁻¹ s⁻¹; with BMP6 [1], 2e+06 M⁻¹ s⁻¹; with GDF8 [2], 390000 M⁻¹ s⁻¹; in the assay with GDF11 [3] it was 3.8e+07 M⁻¹ s⁻¹; with activin A [4] it was 1.3e+07 M⁻¹ s⁻¹; with BMP10 [5], 5.6e+07 M⁻¹ s⁻¹. The molecule further had an on-rate (kon) with GDF3 of 3.4e+06 M⁻¹ s⁻¹.

With B2, the binding result with BMP6 [6], with GDF8 [7] and in the assay with BMP10 [8] was “binds” in each case.

For B3, the results for the binding result with GDF11 [9] and with activin A [10] were “no binding” and “binds”, respectively.

B4: the binding result in the assay with GDF11 [11] and with activin A [10] was “binds” each time.

On to B5, for which the binding result with GDF11 [11] is listed as “binds”.

As for B6, the binding result in the assay with activin A [12] is given as “binds”; in the assay with GDF11 [9] it was “no binding”.

As for B7, the binding result with ActRIIA-mFc [13] is recorded as “binds”.

As to B8, the binding result with ActRIIA-mFc [14] is listed as “binds”. The molecule further gave a Kd in assay [15] of 19000 pM.
